The assay concerns the target human TLR4 (human) (UniProt O00206). In words: BIACORE 3000: TLR4-COS cells (1.7 × 10^5 cells/mL) premixed with 33 µg/mL sCD14(1-307)S286C for 20 minutes, injected over immobilized sCD14(1-356)/LPS. In general terms: Surface plasmon resonance follows binding to a sensor surface in real time, without labels.
Chain of UniProt O00206 (O00206 24-839): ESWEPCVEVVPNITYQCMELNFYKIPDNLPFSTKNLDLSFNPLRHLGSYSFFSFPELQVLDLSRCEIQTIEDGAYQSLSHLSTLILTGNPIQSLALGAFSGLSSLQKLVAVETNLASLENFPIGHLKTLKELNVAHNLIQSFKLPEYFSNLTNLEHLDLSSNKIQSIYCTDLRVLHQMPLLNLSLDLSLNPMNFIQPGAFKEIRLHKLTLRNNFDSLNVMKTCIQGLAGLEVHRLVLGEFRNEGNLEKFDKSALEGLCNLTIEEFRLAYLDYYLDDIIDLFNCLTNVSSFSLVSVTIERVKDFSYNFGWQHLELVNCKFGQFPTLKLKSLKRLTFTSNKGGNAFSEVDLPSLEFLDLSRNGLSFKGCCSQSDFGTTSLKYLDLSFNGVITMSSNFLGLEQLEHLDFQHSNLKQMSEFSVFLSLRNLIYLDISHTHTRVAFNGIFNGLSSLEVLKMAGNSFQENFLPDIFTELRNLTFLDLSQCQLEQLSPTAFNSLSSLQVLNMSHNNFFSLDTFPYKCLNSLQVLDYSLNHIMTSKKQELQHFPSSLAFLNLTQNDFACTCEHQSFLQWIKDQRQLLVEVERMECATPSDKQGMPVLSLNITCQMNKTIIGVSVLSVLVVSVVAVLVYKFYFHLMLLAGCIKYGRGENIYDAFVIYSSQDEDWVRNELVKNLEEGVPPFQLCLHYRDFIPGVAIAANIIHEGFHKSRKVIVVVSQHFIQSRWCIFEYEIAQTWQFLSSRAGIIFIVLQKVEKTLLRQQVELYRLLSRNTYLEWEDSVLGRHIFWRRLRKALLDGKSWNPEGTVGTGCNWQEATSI

B1: sCD14(1-307)S286C (receptor)
chain: TTPEPCELDDEDFRCVCNFSEPQPDWSEAFQCVSAVEVEIHAGGLNLEPFLKRVDADADPRQYADTVKALRVRRLTVGAAQVPAQLLVGALRVLAYSRLKELTLEDLKITGTMPPLPLEATGLALSSLRLRNVSWATGRSWLAELQQWLKPGLKVLSIAQAHSPAFSCEQVRAFPALTSLDLSDNPGLGERGLMAALCPHKFPAIQNLALRNTGMETPTGVCAALAAAGVQPHSLDLSHNSLRATVNPSAPRCMWSSALNSLNLSFAGLEQVPKGLPAKLRVLDLCCNRLNRAPQPDELPEVDNLTL
Consider B1, for which the suppression of binding is 100%.
